Here are results for 3 molecules from paper PMC6499331, “Transcriptional gene silencing requires dedicated interaction between HP1 protein Chp2 and chromatin remodeler Mit1” (Genes & Development, 2019).

Data set [1] deals with T1, StrepSumo-tagged Mit1CII with engineered PkVvL motif instead of CkIvV (S. pombe, UniProt Q9P793 1-81, PkVvL motif instead of CkIvV).
T1 construct: Mit1, S. pombe, CII, residues 1-81; residues 9-13 CKIVV changed to PKVVL; also called Mit1 PxVxL substitution mutant; PxVxL substitution; source: E. coli BL21(DE3) or Rosetta (DE3), purified (Streptactin, SEC); not shown: Strep-SUMO, N-terminal, kept
T1 sequence (looked up): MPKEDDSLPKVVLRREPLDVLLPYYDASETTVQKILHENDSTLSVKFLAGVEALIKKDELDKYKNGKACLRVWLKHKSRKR
Description: ITC; 25°C; 400 mM NaCl, 50 mM Tris-HCl pH 7.5, 5 mM β-mercaptoethanol; Chp2 or Swi6 at 100 to 500 µM injected into the cell holding StrepSumo-tagged Mit1 constructs at 5 to 50 µM; VP-ITC or Nano ITC (Mit1CIIΔCDL). Particulars: both partners purified.

Data set [2] deals with T2, StrepSumo-tagged Mit1CII wild type (S. pombe, UniProt Q9P793 1-81).
T2 construct: The Strep-SUMO tag was left on for stabilization; also called wild-type Mit1CII; source: E. coli BL21(DE3) or Rosetta (DE3), purified (Streptactin, SEC); not shown: Strep-SUMO, N-terminal, kept
T2 sequence (looked up): T1 sequence (looked up) with P9C, V11I, L13V
The data set is described as above. Particulars: both partners purified.

Data set [3] addresses T3, StrepSumo-tagged Mit1CII I11R (S. pombe, UniProt Q9P793 1-81, I11R).
T3 construct: Mit1, S. pombe, CII, residues 1-81, I11R; also called Mit1I11R; Mit1 I11R; source: E. coli BL21(DE3) or Rosetta (DE3), purified (Streptactin, SEC); not shown: Strep-SUMO, N-terminal, kept
T3 sequence (looked up): T1 sequence (looked up) with P9C, V11R, L13V
The description is as above. Particulars: both partners purified.

Data set [4] deals with StrepSumo-tagged Mit1CIIΔCDL (S. pombe). The description is as above.
In data set [5] the target is T4, Mit1(1-81), Chp2 interaction interface (CII), tag removed (S. pombe, UniProt Q9P793 1-81).
T4 construct: Mit1, S. pombe, residues 1-81 (CkIvV motif 9-13, linker 15-31, CD-like domain); Density is seen for residues 8-81; also called Mit1CII; source: E. coli BL21(DE3) or Rosetta (DE3), coexpressed with Chp2CSD, purified as a complex (Streptactin, Ulp1, SEC); not shown: Strep-SUMO, N-terminal, cleaved
T4 sequence (looked up): T1 sequence (looked up) with P9C, V11I, L13V
Description: crystal structure; Mit1(1-81)–Chp2(316-380), coexpressed in E. coli, purified as a complex; hanging drops at 18°C, 2.4 M sodium malonate pH 7, 3% 1,6-hexanediol; 1.6 Å. Particulars: both partners purified.

Data set [6] concerns the molecule itself. Described as above.

Positions count from the first letter of the chain named.

B1: Swi6CSD (domain or fragment, S. pombe, UniProt P40381 267-328, looked up)
chain: DSWEDLVSSIDTIERKDDGTLEIYLTWKNGAISHHPSTITNKKCPQKMLQFYESHLTFRENE
notes: Swi6, HP1 protein, S. pombe, chromoshadow domain (CSD); A crystal structure of the free Swi6CSD dimer (PDB 1E0B) is cited; also called Swi6 chromoshadow domain; source: E. coli BL21(DE3) or Rosetta (DE3), purified (Streptactin, on-column Ulp1 cleavage, SEC); not shown: Strep-SUMO, N-terminal, cleaved
As for B1, the values for the Kd in data set [1] and in data set [2] were 15 µM and 28 µM, respectively.

B2: Chp2CSD (expressed alone, tag removed, for ITC) (domain or fragment, S. pombe)
chain: KPPFQKKSWEDLVDCVKTVQQLDNGKLIAKIKWKNGYVSTHDNIIIHQKCPLKIIEYYEAHIKFT
notes: Chp2, S. pombe, chromoshadow domain (CSD); limits 316-380 are printed for the crystallised CSD construct, not for the ITC sample; source: E. coli BL21(DE3) or Rosetta (DE3), purified (Streptactin, Ulp1, MonoS); not shown: Strep-SUMO, N-terminal, cleaved
As to B2, the Kd in data set [1] amounted to 0.0082 µM; in data set [2] it was 0.0026 µM; in data set [3] it was 21.5 µM; in data set [4] it was 2.2 µM.

B3: Chp2CSD, Chp2(316-380), untagged, coexpressed with Mit1 fragments (domain or fragment, S. pombe, UniProt O42934 316-380, looked up)
chain: B2 chain
notes: Chp2, S. pombe, chromoshadow domain, residues 316-380; Cloned without tag into pACE2 for coexpression; Limits 316-380 are printed for the crystallised complex; also called chromo shadow domain of Chp2; Chp2CSD2; source: E. coli BL21(DE3) or Rosetta (DE3), coexpressed with Mit1 fragments, purified as a complex
As to B3, the results for the “stoichiometry N” value in data set [5] and in data set [6] were 2 Chp2CSD chains per Mit1 and 2, respectively.
